One block for each substance: values may come before it.
What was measured:
[1] = biological target: HLA-A*2902 (A29) single antigen on beads (human); experiment: Luminex iBeads (#6), IVIg 1:4
[2] = biological target: HLA-A*3001 (A30) single antigen on beads (human); experiment: Luminex iBeads (#6), IVIg 1:4
[3] = biological target: HLA-A*3002 (A30) single antigen on beads (human); experiment: Luminex iBeads (#6), IVIg 1:4
[4] = biological target: HLA-A*3101 (A31) single antigen on beads (human); experiment: Luminex iBeads (#6), IVIg 1:4
[5] = biological target: HLA-A*3201 (A32) single antigen on beads (human); experiment: Luminex iBeads (#6), IVIg 1:4
[6] = biological target: HLA-A*3301 (A33) single antigen on beads (human); experiment: Luminex iBeads (#6), IVIg 1:4
[7] = biological target: HLA-A*3303 (A33) single antigen on beads (human); experiment: Luminex iBeads (#6), IVIg 1:4
[8] = biological target: HLA-A*3402 (A34) single antigen on beads (human); experiment: Luminex iBeads (#6), IVIg 1:4
[9] = biological target: HLA-A*3601 (A36) single antigen on beads (human); experiment: Luminex iBeads (#6), IVIg 1:4
[10] = biological target: HLA-A*4301 (A43) single antigen on beads (human); experiment: Luminex iBeads (#6), IVIg 1:4
[11] = biological target: HLA-A*6601 (A66) single antigen on beads (human); experiment: Luminex iBeads (#6), IVIg 1:4
[12] = biological target: HLA-A*6602 (A66) single antigen on beads (human); experiment: Luminex iBeads (#6), IVIg 1:4
[13] = biological target: HLA-A*6801 (A68) single antigen on beads (human); experiment: Luminex iBeads (#6), IVIg 1:4
[14] = biological target: HLA-B*8201 (B82) (human); experiment: Luminex, regular beads (#7), 1:4
[15] = biological target: HLA-Cw*0303 (Cw9) (human); experiment: Luminex, regular beads (#7), 1:4
[16] = biological target: HLA-Cw*0401 (Cw4) (human); experiment: Luminex, regular beads (#7), 1:4
[17] = biological target: HLA-Cw*1601 (Cw16) (human); experiment: Luminex, regular beads (#7), 1:4
[18] = biological target: HLA-B*1301 (B13) (human); experiment: Luminex iBeads (#6), IVIg diluted 1:4
[19] = biological target: HLA-B*1401 (B64) (human); experiment: Luminex iBeads (#6), IVIg diluted 1:4
[20] = biological target: HLA-B*1502 (B75) (human); experiment: Luminex iBeads (#6), IVIg diluted 1:4
[21] = biological target: HLA-B*1510 (B71) (human); experiment: Luminex iBeads (#6), IVIg diluted 1:4
[22] = biological target: HLA-B*1511 (B75) (human); experiment: Luminex iBeads (#6), IVIg diluted 1:4
[23] = biological target: HLA-B*1513 (B77) (human); experiment: Luminex iBeads (#6), IVIg diluted 1:4
[24] = biological target: HLA-A*2902 (A29) single antigen on beads (human); experiment: Luminex, iBead vs regular bead, IVIg 1:4
[25] = biological target: HLA-A*3002 (A30) single antigen on beads (human); experiment: Luminex, iBead vs regular bead, IVIg 1:4
[26] = biological target: HLA-A*3201 (A32) single antigen on beads (human); experiment: Luminex, iBead vs regular bead, IVIg 1:4
[27] = biological target: HLA-A*3301 (A33) single antigen on beads (human); experiment: Luminex, iBead vs regular bead, IVIg 1:4
[28] = biological target: HLA-A*3401 (A34) single antigen on beads (human); experiment: Luminex, iBead vs regular bead, IVIg 1:4
[29] = biological target: HLA-A*6601 (A66) single antigen on beads (human); experiment: Luminex, iBead vs regular bead, IVIg 1:4
[30] = biological target: HLA-A*6602 (A66) single antigen on beads (human); experiment: Luminex, iBead vs regular bead, IVIg 1:4
[31] = biological target: HLA-A*2902 (A29) single antigen on beads (human); experiment: Luminex single-antigen regular beads (#7), IVIg 1:4
[32] = biological target: HLA-A*3002 (A30) single antigen on beads (human); experiment: as above
[33] = biological target: HLA-A*3101 (A31) single antigen on beads (human); experiment: as above
[34] = biological target: HLA-A*3201 (A32) single antigen on beads (human); experiment: as above
[35] = biological target: HLA-A*3301 (A33) single antigen on beads (human); experiment: as above
[36] = biological target: HLA-A*3303 (A33) single antigen on beads (human); experiment: as above
[37] = biological target: HLA-A*3402 (A34) single antigen on beads (human); experiment: as above
[38] = biological target: HLA-A*6601 (A66) single antigen on beads (human); experiment: as above
[39] = biological target: HLA-A*6801 (A68) single antigen on beads (human); experiment: as above
[40] = biological target: HLA-A*6802 (A68) single antigen on Luminex beads (human); experiment: Luminex single antigen bead assay, iBeads vs regular beads, IVIg 1:4
[41] = biological target: HLA-A*6901 (A69) single antigen on Luminex beads (human); experiment: as above
[42] = biological target: HLA-A*8001 (A80) single antigen on Luminex beads (human); experiment: as above
[43] = biological target: Albumin on negative control beads (serum albumin, HSA/BSA) (human or bovine); experiment: Luminex, iBead MFI against regular bead MFI, 1:8
[44] = biological target: HLA-A*0301 (A3) on single antigen beads (human) (UniProt P04439); experiment: Luminex, iBead MFI against regular bead MFI, 1:8

MFI [1]: 932 MFI
MFI [2]: 540 MFI
MFI [3]: 526 MFI
MFI [4]: 295 MFI
MFI [5]: 769 MFI
MFI [6]: 684 MFI
MFI [7]: 439 MFI
MFI [8]: 177 MFI
MFI [9]: 636 MFI
MFI [10]: 949 MFI
MFI [11]: 783 MFI
MFI [12]: 768 MFI
MFI [13]: 307 MFI
MFI [14]: 639 MFI
MFI [15]: 703 MFI
MFI [16]: 1570 MFI
MFI [17]: 973 MFI
MFI [18]: 504 MFI
MFI [19]: 206 MFI
MFI [20]: 245 MFI
MFI [21]: 271 MFI
MFI [22]: 552 MFI
MFI [23]: 445 MFI
Difference % (iBead MFI vs regular bead MFI) [24]: 366%
Difference % (iBead MFI vs regular bead MFI) [25]: 202%
Difference % (iBead MFI vs regular bead MFI) [26]: 202%
Difference % (iBead MFI vs regular bead MFI) [27]: 270%
Difference % (iBead MFI vs regular bead MFI) [28]: 80%
Difference % (iBead MFI vs regular bead MFI) [29]: 742%
Difference % (iBead MFI vs regular bead MFI) [30]: 111%
MFI [31]: 200 MFI
MFI [32]: 174 MFI
MFI [33]: 0 MFI
MFI [34]: 255 MFI
MFI [35]: 185 MFI
MFI [36]: 0 MFI
MFI [37]: 0 MFI
MFI [38]: 93 MFI
MFI [39]: 0 MFI
Difference % (iBead MFI against regular bead MFI) [40]: 31%
Difference % (iBead MFI against regular bead MFI) [41]: 68%
Difference % (iBead MFI against regular bead MFI) [42]: 41%
Substance: IVIg Sandoglobulin (Novartis, Basel, Switzerland) (antibody)

Difference % (iBead against regular bead) [43]: -29%
Difference % (iBead against regular bead) [44]: -100%
Substance: Octagam (IVIg, Octapharma, Lachen, Switzerland) (antibody)
